Like-named read-outs stand apart in the source and are kept apart here.
Assays:
PAR [1] = assay: in vitro PAR-binding assay, twenty percent TBE-PAGE analysis
Method: To begin, 300 nM of purified WT-AIF or Pbm-AIF (i.e., AIF mutated in its PAR binding region) were incubated with ^32P-labeled PAR for 10 minutes at room temperature. Thereafter, samples were incubated with AIF antibody-linked protein G slurry for 1 hour. Samples were washed two times with PBS and boiled with 1× Laemmli sample buffer (obtained from BIO-RAD). Each soluble fraction was resolved in 20% TBE-PAGE. The gel was heat dried and developed using the Typhoon 9400 Imager.
(§1) To further ascertain whether full length recombinant AIF-Tm produced above (henceforth named “Pbm-AIF”) binds PAR, Applicants performed three iterations of an EMSA assay for PAR binding with recombinant WT-AIF and Pbm-AIF, using histone H3 as a control. […] FIG. 9 comprises a black and white photograph of EMSA gels showing representative results for WT-AIF and Pbm-AIF using ^32P-labeled PAR.

PAR [2] = assay: PAR overlay assay of full length AIF and mutants; format: binding
Method: (§2) The following experiment was performed to confirm whether AIF in fact binds to PAR. Applicants performed 3 trials of an overlay assay on recombinant AIF with affinity-purified biotin-labeled PAR. Histone H3, which binds to PAR with high affinity, was included as a positive control and bovine serum albumin (“BSA”) was included as a negative control, as described by P. Chang et al. (Nat Cell Bio, 2005). FIG. 1B depicts three photos side by side for gels representative of all trials for these overlay assays. […] Thus, Applicants took the results of these two tests as confirming that AIF binds to PAR in vitro.
To further study these potential AIF PBMs, Applicants performed the following experiment to examine the effect of mutating AIFm amino acids 222-244, 441-463, and/or 567-592 to poly-alanine on the ability of AIF to bind PAR. FIG. 6 comprises black and white photographs of representative gels from an overlay assay of His-tagged WT-AIF, AIFm222-244, AIFm441-463, AIFm567-592, AIFΔ567-592 (i.e., a mutant lacking AAs 567-592), and AIF(K254A, R264A) (i.e., mutating K to A at 254 and R to A at 264) mutants with ^32P-labeled automodified PARP-1 (equivalent to 100 nM of PAR), purified ^32P-labeled PAR (100 nM), or purified ^32P-labeled PAR with either a 100-fold excess of DNA or cold PAR. […] The same can be assumed to corresponding sequences for other species, such as those identified in FIG. 4.
Additionally, to exclude the possibility that PAR polymer is binding to AIF through its DNA-binding domain, PAR polymer binding was assessed against the full length AIF DNA-binding mutant AIFK254A;R264A as described by H Cande et al. (Nat Struct Biol, 2002).
Finally, Human AIF (“AIFH”) is known to bind to DNA through a groove between the FAD-binding domain (“D1”) and C-terminal domain (“D3”). A mutant form of AIFH in which lysine 255 is substituted with alanine and arginine 265 is substituted with alanine (AIFK255A;R265A) completely lacks DNA binding. To investigate the possible contribution of the AIF DNA-binding domain to PAR binding, Applicants assessed PAR binding to AIFm mutated in the same way (AIFK254A;R264A). […] Thus, Applicants concluded that the AIF PAR-binding site is separable from its DNA-binding site, meaning that such binding could be inhibited by genetically modifying AIF without impacting the natural DNA binding capabilities of AIF or potentially by otherwise inhibiting the binding action of the PBMs.

isolated HeLa nuclei = assay: nuclear shrinkage assay; format: biochemical; details: non-tagged proteins incubated with isolated HeLa nuclei
Method: Nuclei were obtained by purification from HeLa cells as described previously by A. Mandir et al. (J Neurosci, 2000). For the assay, purified nuclei were incubated with recombinant WT-AIF or Pbm-AIF (20 ng/ml) in the presence of ATP (2 mM), phosphocreatine (20 mM) and creatine kinase (50 μg/ml) for 90 minutes at 37° C. Nuclei were stained by DAPI and examined by fluorescence microscopy.
FIG. 11D comprises an array of color photographs showing the result of fluorescence microscopy for various cultures, as labeled in the figure, following DAPI staining. […] FIG. 11E is a chart reporting the result of a quantification of nuclei treated by WT-AIF, Pbm-AIF, and control (“CTL”), using Caspase 3 as a positive control.

PAR [3] = assay: biotin-labeled PAR pull-down assay; format: binding; details: biotin-labeled PAR-conjugated NeutrAvidin beads
Description: To confirm that Pbm-AIF fails to bind PAR, Applicants also performed four trials of biotin-labeled PAR pull-down assays on WT-AIF, Pbm-AIF, and histone H3. For this experiment, the pull-down assay used biotin-labeled PAR-conjugated NeutrAvidin beads. FIG. 10A comprises a composite black and white photograph depicting typical gels obtained in this pull-down assay.

PAR [4] = assay: EMSA with 32P-labeled PAR; format: binding
Method: as §2, §1

isolated mitochondria = assay: AIF binding to isolated mitochondria
Method: One commonly accepted estimate is that approximately 20%-30% of AIF resides on the cytosolic side of the outer membrane of mitochondria, where it is poised to be rapidly released by PAR following PARP-1 activation. Applicants thus wanted to perform tests of AIF binding to mitochondria determine how readily purified WT-AIF and Pbm-AIF bind to mitochondria in a time- and concentration-dependent manner. Specifically, recombinant WT-AIF (2.5 ng/μl) and Pbm-AIF (2.5 ng/μl) were incubated with isolated mitochondria (200 μg/ml) for 1 minute, 5 minutes, 10 minutes, 15 minutes, 20 minutes or 30 minutes. […] The results of this portion of the experiment is provided by the graph of FIG. 15B.
To investigate the mechanism underlying mitochondrial AIF release following PARP-1 activation, Applicants incubated isolated mitochondria with purified non-tagged forms of AIF in the presence or absence of PAR and followed this by centrifugation to remove the mitochondria. Detection of AIF remaining in the supernatant was thereafter performed through immunoblot analysis.
The supernatant collected in the experiments of Example 16 were also analyzed for the presence of Tom20 and cyclochrome c.

B1: WT-AIF: full length wild type mouse AIF (apoptosis-inducing factor), recombinant (protein)
chain: MFRCGGLAGAFKQKLVPLVRTVYVQRPKQRNRLPGNLFQQWRVPLELQMARQMASSGSSGGKMDNSVLVLIVGLSTIGAGAYAYKTIKEDQKRYNERVMGLGLSPEEKQRRAIASATEGGSVPQIRAPSHVPFLLIGGGTAAFAAARSIRARDPGARVLIVSEDPELPYMRPPLSKELWFSDDPNVTKTLQFRQWNGKERSIYFQPPSFYVSAQDLPNIENGGVAVLTGKKVVHLDVRGNMVKLNDGSQITFEKCLIATGGTPRSLSAIDRAGAEVKSRTTLFRKIGDFRALEKISREVKSITVIGGGFLGSELACALGRKSQASGIEVIQLFPEKGNMGKILPQYLSNWTMEKVKREGVKVMPNAIVQSVGVSGGRLLIKLKDGRKVETDHIVTAVGLEPNVELAKTGGLEIDSDFGGFRVNAELQARSNIWVAGDAACFYDIKLGRRRVEHHDHAVVSGRLAGENMTGAAKPYWHQSMFWSDLGPDVGYEAIGLVDSSLPTVGVFAKATAQDNPKSATEQSGTGIRSESETESEASEITIPPSAPAVPQVPVEGEDYGKGVIFYLRDKVVVGIVLWNVFNRMPIARKIIKDGEQHEDLNEVAKLFNIHED
binding to 32P-PAR (PAR [1]): bound to ^32P-PAR of different lengths
effect of hundred fold excess of salmon sperm DNA on PAR binding (PAR [2]; overlay assay, 32P-labeled PAR): fails to disrupt
binding to biotin-labeled PAR (PAR [2]; overlay assay, affinity-purified biotin-labeled PAR): bound to biotin-labeled PAR in a concentration-dependent manner
effect of salmon sperm DNA on PAR binding (PAR [2]; salmon sperm DNA at 760 μM): failed to disrupt PAR binding
chromatin condensation and nuclear shrinkage (isolated HeLa nuclei): comparable levels of chromatin condensation and nuclear shrinkage
pull-down with biotin-labeled PAR (PAR [3]): pulled down with biotin-labeled PAR
PAR mobility shift (PAR [4]): caused a PAR mobility shift in a concentration-dependent manner
PAR mobility shift (PAR [4]; listed as AIFm): cause a shift of PAR polymer
binding to mitochondria versus concentration (isolated mitochondria; 0.1 ng/μl to 120.5 ng/μl, 30 minutes, room temperature): bound to the mitochondria in a concentration dependent manner
binding percentage to mitochondria over time (isolated mitochondria; 2.5 ng/μl, mitochondria 200 μg/ml, after 5 minutes): equivalent
effect of PAR on association with mitochondria (isolated mitochondria; 5 nM PAR): failed to affect association
effect of PAR on association with mitochondria (isolated mitochondria; 50 nM PAR): increased the concentration of WT-AIF in the supernatant
effect of PAR on association with mitochondria (isolated mitochondria; 100 nM PAR): almost completely abolished
depletion from the supernatant by mitochondria (isolated mitochondria; untreated mitochondria, absence of PAR): effectively depleted
